Columns and labels:
[1] = target: His8-cytb5R (soluble form of human cytochrome b5 reductase with N-terminal His8 tag) (human) (UniProt P00387); assay: cell-based or functional assay
[2] = target: His8-cytb5-sd (human cytochrome b5 soluble domain with N-terminal His8 tag) (UniProt P00167)
[3] = target: His8-MBP-fl-cytb5 fusion protein

UniProt P00167, sequence (P00167 1-97): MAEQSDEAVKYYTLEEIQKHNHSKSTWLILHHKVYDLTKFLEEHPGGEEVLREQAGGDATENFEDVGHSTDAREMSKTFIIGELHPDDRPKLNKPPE
UniProt P00387, sequence (P00387 24-301): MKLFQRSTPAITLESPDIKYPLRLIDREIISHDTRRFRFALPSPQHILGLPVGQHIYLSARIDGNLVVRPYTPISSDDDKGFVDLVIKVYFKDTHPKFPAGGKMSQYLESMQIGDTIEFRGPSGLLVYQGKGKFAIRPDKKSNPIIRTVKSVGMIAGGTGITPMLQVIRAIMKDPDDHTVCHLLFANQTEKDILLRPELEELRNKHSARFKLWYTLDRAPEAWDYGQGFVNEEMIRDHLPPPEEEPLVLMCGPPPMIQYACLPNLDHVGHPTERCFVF

His8-cytb5-sd (human cytochrome b5 soluble domain with N-terminal His8 tag) (from UniProt P00167 1-97)
V/K, µM^-1 s^-1 (steady-state reduction of cytb5 by His8-cytb5R with NADH) [1]: 5e+06 M⁻¹ s⁻¹

His8-cytb5R (soluble form of human cytochrome b5 reductase with N-terminal His8 tag)
Km, µM (steady-state reduction of cytb5 by His8-cytb5R with NADH) [2]: 5 µM | Vmax, s^-1 (steady-state reduction of cytb5 by His8-cytb5R with NADH, absorbance at 413 nm) [2]: 25 s⁻¹

B1: tobacco etch virus (TEV) protease (protein)
chain: GESLFKGPRDYNPISSTICHLTNESDGHTTSLYGIGFGPFIITNKHLFRRNNGTLLVQSLHGVFKVKNTTTLQQHLIDGRDMIIIRMPKDFPPFPQKLKFREPQREERICLVTTNFQTKSMSSMVSDTSCTFPSSDGIFWKHWIQTKDGQCGSPLVSTRDGFIVGIHSASNFTNTNNYFTSVPKNFMELLTNQEAQQWVSGWRLNADSVLWGGHKVFMSKPEEPFQPVKEATQLMNE
site-specific proteolysis of the linker (SDS-PAGE) [3]: a satisfactory reaction was obtained at a ratio of His8-MBP-fl-cytb5 to TEV protease of 10:1 (reaction completed in 30 min)
